Experimental findings from PMC9363494 are described below.

One assay concerns the target Y39E-α-syn (UniProt P37840).
In another assay the target is full-length α-synuclein (UniProt P37840). Description: NMR titration; 1H-15N HSQC of 0.3 mM 15N-enriched FL- or CT-α-syn titrated with PDI (mole ratios 10:1 to 1:1, 0-300 μM PDI); 20 mM HEPES, 100 mM NaCl, 5 mM TCEP, pH 7.0, 10% D2O, 15 °C; KD from fits of the average CSPs of residues in segment 1 and in segment 2.

In the assay with Y39E-α-syn, “protein disulfide isomerase (from UniProt P07237 18-508) (enzyme)” gave an elongation rate constant (k) of aggregation of Y39E-α-syn with PDI, thioflavin T fluorescence (without PDI: ND, plateau was not reached) of 0.21; a half-time (t1/2) of aggregation of Y39E-α-syn with PDI, thioflavin T fluorescence (without PDI: ND, plateau was not reached) of 46 h; a lag time (tlag) of aggregation of Y39E-α-syn with PDI, thioflavin T fluorescence (without PDI: ND, plateau was not reached) of 36 h.
As to “protein disulfide isomerase, P07237 18-508 (enzyme; other documents disagree on this pair)”, in the assay with full-length α-synuclein, the KD of segment 1 turned out to be 700 µM and the KD of segment 2 was 400 µM.
